Molecular target: human activated blood coagulation factor X (FXa) (human)
Assay: SPR; […]; 37°C; HBS (10 mM Hepes, 150 mM NaCl, 5 mM CaCl2, 0.005% P20, pH 7.4); Langmuir fit; […]

With “Myotoxin II from Bothrops asper venom (from UniProt P24605 17-137) (natural protein)” as the substance, how does the Kd read?
The Kd was 1.8 nM.

What about the koff of the same substance?
Its koff is 0.0178 s⁻¹.

What about the kon of the same substance?
The kon was 1.04e+07 M⁻¹ s⁻¹.

From PMC2248580
